US20220047716A1 (SUTRO BIOPHARMA, published 2022)
Residue numbers refer to the chain shown, from its start.

B1: SRP1848-A01 (antibody, V domains shown)
VH: EVQLVESGGGLVQPGGSLRLSCAASGFNITRYSIHWVRQAPGKGLEWVAGILPESGGTSYADSVKGRFTISADTSKNTAYLQMNSLRAEDTAVYYCARHIYPWDWFSNYVLDYWGQGTLVTVSS
VL: not shown
B2: SRP1848-F04 (antibody, V domains shown)
VH: EVQLVESGGGLVQPGGSLRLSCAASGFNISNYSIHWVRQAPGKGLEWVGEIYPIDGITDYADSVKGRFTISADTSKNTAYLQMNSLRAEDTAVYYCARGSWFWRSGYGYYLDYWGQGTLVTVSS
VL: not shown
B3: SRP1848-B03 (antibody, V domains shown)
VH: B2 VH with N31M, Y32K, S33Y, E50G, Y52T, I57M, F102S, R104P, G108S
VL: not shown
B4: SRP1848-A04 (antibody, V domains shown)
VH: B2 VH with S30D, N31Q, Y32S, E50V, I54V, I57T, S100A, F102S, L111I
VL: not shown
B5: SRP1848-A10 (antibody, V domains shown)
VH: B2 VH with S30R, N31K, V37A, E50D, Y52F, G56D, F102S, R104P, Y107H, G108S
VL: not shown
B6: SRP1848-B07 (antibody, V domains shown)
VH: EVQLVESGGGLVQPGGSLRLSCAASGFNISRFYIHWVRQAPGKGLEWVGGISPYDGFTDYADSVKGRFTISADTSKNTAYLQMNSLRAEDTAVYYCARGSWSWPAGYGYYQDYWGQGTLVTVSS
VL: not shown
B7: SRP1848-A08 (antibody, V domains shown)
VH: B2 VH with F27S, S30R, N31K, Y32H, E50S, I54N, I57T, S105A
VL: not shown
B8: SRP1848-B05 (antibody, V domains shown)
VH: B2 VH with S33Y, E50G, Y52S, I57Y, V64M, N84S, R104Q
VL: not shown
B9: SRP1848-D09 (antibody, V domains shown)
VH: B2 VH with S33Y, E50G, Y52S, I54N, I57Y, F102S, S105H
VL: not shown
B10: SRP1848-B06 (antibody, V domains shown)
VH: B6 VH with R31N, F32Y, S52T, Y54I, F57Y, S100F, A105S
VL: not shown
B11: SRP1848-D07 (antibody, V domains shown)
VH: B2 VH with N31K, S33Y, E50G, Y52S, I54N, I57Y, T69A, S100F, F102A
VL: not shown
B12: SRP1848-E01 (antibody, V domains shown)
VH: B6 VH with S30T, R31N, F32K, S52T, Y54F
VL: not shown
B13: SRP1848-A07 (antibody, V domains shown)
VH: B2 VH with S30G, N31Y, Y32H, Y52F, I54V, I57T, Q82H, S100F, F102A
VL: not shown
B14: SRP1848-B11 (antibody, V domains shown)
VH: B2 VH with S30G, Y32N, E50D, Y52S, I57F, F102S, S105A
VL: not shown
B15: SRP1848-C05 (antibody, V domains shown)
VH: B2 VH with S30R, N31K, E50D, Y52F, T58N, F102S, R104K, S105A
VL: not shown
B16: SRP1848-B04 (antibody, V domains shown)
VH: B2 VH with G26S, Y32H, I54V, S100R, W101Y, F102S, S105A, G108S
VL: not shown
B17: SRP1848-C03 (antibody, V domains shown)
VH: B2 VH with S30G, N31V, I57N, F102A, G108S
VL: not shown
B18: SRP1848-C10 (antibody, V domains shown)
VH: B6 VH with S30R, R31T, F32Y, Y54I, F57Y, Q111L
VL: not shown
B19: SRP1848-B10 (antibody, V domains shown)
VH: B2 VH with I29T, S30T, N31T, Y32K, I54R, S100G, F102H, G108S
VL: not shown
B20: SRP1848-B01 (antibody, V domains shown)
VH: B2 VH with S30R, I54V, S100F, F102S, R104P, G108S, Y110F
VL: not shown
B21: SRP1848-A09 (antibody, V domains shown)
VH: B2 VH with S30R, N31K, Y32Q, E50S, Y52F, I54N, I57T, M83V, Y110F, D112E
VL: not shown
B22: SRP1848-C01 (antibody, V domains shown)
VH: EVQLVESGGGLVQPGGSLRLSCAASGFNIGNSYIHWVRQAPGKGLEWVGGVTPNDGYTDYADSVKGRFTISADTSKNTTYLQMNSLRAEDTAVYYCARGSWFWRAGYGYYLDYWGQGALVTVSS
VL: not shown
B23: SRP1848-B09 (antibody, V domains shown)
VH: EVQLVESGGGLVQPGGSLRLSCAAGGFNITNYYIHWVRQAPGKGLEWVGGITPVDGYTDYADRVKGRFTISADTSKNTAYLQMNSLRAEDTAVYYCARGAWSWRSGYGYYMDYWGQGTLVTVSS
VL: not shown
B24: SRP1848-A06 (antibody, V domains shown)
VH: B23 VH with G25S, T30G, Y32S, V54I, Y57N, R63S, M111I
VL: not shown
B25: SRP1848-D10 (antibody, V domains shown)
VH: B2 VH with N31R, Y32N, E50W, Y52S, I54N, I57T, T74G, S100A, F102S, L111I
VL: not shown
B26: SRP1848-C04 (antibody, V domains shown)
VH: B2 VH with S30R, N31H, I54G, D55P, I57N, W101L, F102S, S105A
VL: not shown
B27: SRP1848-D02 (antibody, V domains shown)
VH: B23 VH with G25S, T30S, N31H, Y32N, V54Q, R63S, S85R, S105A, M111L
VL: not shown
B28: SRP1848-D05 (antibody, V domains shown)
VH: B6 VH with R31I, F32S, Y54I, F57Y, P104R, Q111L
VL: not shown
B29: SRP1848-D04 (antibody, V domains shown)
VH: B2 VH with N31H, I54R, R87S, S100Y
VL: not shown
B30: SRP1848-C07 (antibody, V domains shown)
VH: B2 VH with S30R, N31K, E50D, Y52F, V64M, F102S, R104P, S105A, L111Q
VL: not shown

target: human folate receptor alpha (hFOLR1) (human, UniProt P15328 25-234); assay: cell-based or functional assay
Sequence (P15328 25-234 limits assumed): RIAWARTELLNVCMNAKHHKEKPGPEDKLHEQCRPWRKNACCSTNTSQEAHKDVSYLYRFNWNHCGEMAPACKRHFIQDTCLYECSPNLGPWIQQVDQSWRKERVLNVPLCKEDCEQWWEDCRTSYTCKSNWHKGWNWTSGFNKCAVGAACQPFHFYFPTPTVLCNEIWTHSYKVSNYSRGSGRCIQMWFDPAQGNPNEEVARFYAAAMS

B1 and B2 are the same in “Igrov 2° antibody cell killing EC50” value: 0.015 nM for the first, 0.015 nM for the second.

Going from B3 to B4, the “Igrov 2° antibody cell killing EC50” value falls from 0.028 nM to 0.015 nM (1.9-fold).

B5 and B6 are within 1.5-fold of each other in “Igrov 2° antibody cell killing EC50” value: 0.027 nM for the first, 0.038 nM for the second.

Going from B7 to B8, the “Igrov 2° antibody cell killing EC50” value rises from 0.013 nM to 0.04 nM (3.1-fold).

B9 and B10 are within 1.5-fold of each other in “Igrov 2° antibody cell killing EC50” value: 0.023 nM for the first, 0.022 nM for the second.

B11 and B12 are within 1.5-fold of each other in “Igrov 2° antibody cell killing EC50” value: 0.032 nM for the first, 0.029 nM for the second.

B13 and B14 are within 1.5-fold of each other in “Igrov 2° antibody cell killing EC50” value: 0.029 nM for the first, 0.026 nM for the second.

B15 and B16 are within 1.5-fold of each other in “Igrov 2° antibody cell killing EC50” value: 0.021 nM for the first, 0.018 nM for the second.

B17 and B18 are within 1.5-fold of each other in “Igrov 2° antibody cell killing EC50” value: 0.035 nM for the first, 0.036 nM for the second.

B20 and B21 are within 1.5-fold of each other in “Igrov 2° antibody cell killing EC50” value: 0.031 nM for the first, 0.026 nM for the second.

B22 and B23 are within 1.5-fold of each other in “Igrov 2° antibody cell killing EC50” value: 0.023 nM for the first, 0.027 nM for the second.

B25 and B26 are within 1.5-fold of each other in “Igrov 2° antibody cell killing EC50” value: 0.012 nM for the first, 0.016 nM for the second.

Going from B27 to B29, the “Igrov 2° antibody cell killing EC50” value rises from 0.027 nM to 0.068 nM (2.5-fold).

With B30 the “Igrov 2° antibody cell killing EC50” value was 0.013 nM.

Going from B1 to B2, the “Igrov 2° antibody cell killing Span” value rises from 71% to 73%.

Going from B3 to B4, the “Igrov 2° antibody cell killing Span” value falls from 66% to 64%.

First: B5
Second: B6
The “Igrov 2° antibody cell killing Span” value of the first is higher: 75% for the first, 73% for the second.

Compared with B7, B8 is higher in “Igrov 2° antibody cell killing Span” value: 65% for the first, 72% for the second.

Going from B9 to B10, the “Igrov 2° antibody cell killing Span” value rises from 70% to 72%.

First: B11
Second: B12
The “Igrov 2° antibody cell killing Span” value of the first is lower: 71% for the first, 72% for the second.

First: B13
Second: B14
The “Igrov 2° antibody cell killing Span” value of the first is lower: 68% for the first, 74% for the second.

Compared with B15, B16 is higher in “Igrov 2° antibody cell killing Span” value: 62% for the first, 70% for the second.

Compared with B17, B18 is higher in “Igrov 2° antibody cell killing Span” value: 72% for the first, 75% for the second.

Going from B19 to B20, the “Igrov 2° antibody cell killing Span” value rises from 71% to 82%.

Going from B21 to B22, the “Igrov 2° antibody cell killing Span” value falls from 71% to 68%.

Going from B23 to B24, the “Igrov 2° antibody cell killing Span” value falls from 74% to 72%.

Going from B25 to B26, the “Igrov 2° antibody cell killing Span” value rises from 54% to 68%.

Going from B27 to B28, the “Igrov 2° antibody cell killing Span” value rises from 71% to 73%.

First: B29
Second: B30
The “Igrov 2° antibody cell killing Span” value of the first is higher: 77% for the first, 67% for the second.

First: B1
Second: B2
The “KB 2° antibody cell killing EC50” value of the first is 1.5-fold lower: 0.064 nM for the first, 0.096 nM for the second.

B3 and B4 are within 1.5-fold of each other in “KB 2° antibody cell killing EC50” value: 0.05 nM for the first, 0.052 nM for the second.

Compared with B5, B6 is 2.4-fold higher in “KB 2° antibody cell killing EC50” value: 0.033 nM for the first, 0.079 nM for the second.

Going from B7 to B8, the “KB 2° antibody cell killing EC50” value rises from 0.039 nM to 0.065 nM (1.7-fold).

B9 and B10 are within 1.5-fold of each other in “KB 2° antibody cell killing EC50” value: 0.042 nM for the first, 0.058 nM for the second.

B11 and B12 are within 1.5-fold of each other in “KB 2° antibody cell killing EC50” value: 0.075 nM for the first, 0.088 nM for the second.

B13 and B14 are within 1.5-fold of each other in “KB 2° antibody cell killing EC50” value: 0.062 nM for the first, 0.058 nM for the second.

First: B15
Second: B16
The “KB 2° antibody cell killing EC50” value of the first is 2.1-fold higher: 0.073 nM for the first, 0.035 nM for the second.

B17 and B18 are within 1.5-fold of each other in “KB 2° antibody cell killing EC50” value: 0.074 nM for the first, 0.057 nM for the second.

Compared with B19, B20 is 1.6-fold higher in “KB 2° antibody cell killing EC50” value: 0.04 nM for the first, 0.064 nM for the second.

Going from B23 to B24, the “KB 2° antibody cell killing EC50” value falls from 0.073 nM to 0.046 nM (1.6-fold).

Going from B25 to B26, the “KB 2° antibody cell killing EC50” value falls from 0.016 nM to 0.006 nM (2.7-fold).

First: B27
Second: B28
The “KB 2° antibody cell killing EC50” value of the first is 1.6-fold lower: 0.034 nM for the first, 0.055 nM for the second.

Going from B29 to B30, the “KB 2° antibody cell killing EC50” value falls from 0.38 nM to 0.065 nM (5.8-fold).

Compared with B1, B2 is lower in “KB 2° antibody cell killing Span” value: 94% for the first, 93% for the second.

Compared with B3, B4 is lower in “KB 2° antibody cell killing Span” value: 94% for the first, 92% for the second.

B5 and B6 are the same in “KB 2° antibody cell killing Span” value: 96% for the first, 96% for the second.

Compared with B7, B8 is higher in “KB 2° antibody cell killing Span” value: 93% for the first, 94% for the second.

Compared with B9, B10 is higher in “KB 2° antibody cell killing Span” value: 91% for the first, 95% for the second.

Going from B11 to B12, the “KB 2° antibody cell killing Span” value falls from 94% to 92%.

Going from B13 to B14, the “KB 2° antibody cell killing Span” value falls from 95% to 93%.

Going from B15 to B16, the “KB 2° antibody cell killing Span” value rises from 92% to 94%.

Compared with B17, B18 is higher in “KB 2° antibody cell killing Span” value: 93% for the first, 96% for the second.

Compared with B19, B20 is lower in “KB 2° antibody cell killing Span” value: 97% for the first, 95% for the second.

Going from B21 to B22, the “KB 2° antibody cell killing Span” value falls from 93% to 90%.

First: B23
Second: B24
The “KB 2° antibody cell killing Span” value of the first is higher: 97% for the first, 93% for the second.

First: B25
Second: B26
The “KB 2° antibody cell killing Span” value of the first is lower: 90% for the first, 94% for the second.

Compared with B27, B28 is lower in “KB 2° antibody cell killing Span” value: 93% for the first, 92% for the second.

Compared with B29, B30 is lower in “KB 2° antibody cell killing Span” value: 97% for the first, 93% for the second.
